# PMC6378967
# Tests used:
# [1] = target: WT human renin (human) (UniProt P00797)
# [2] = target: biotinylated renin D226A mutant (human); assay: BLI; FortéBio Octet Red96; biotinylated renin D226A (2.5 μg/ml) loaded on streptavidin biosensors; 2-fold dilutions of AGT in 10 mM Tris, pH 7.4, 0.15 M NaCl, 1% BSA; 1:1 binding model, global fit; KD = koff/kon; three independent assays
# [3] = target: WT human renin (human) (UniProt P00797); remark: listed apart in the source
# WT human renin (human), sequence (P00797 67-406): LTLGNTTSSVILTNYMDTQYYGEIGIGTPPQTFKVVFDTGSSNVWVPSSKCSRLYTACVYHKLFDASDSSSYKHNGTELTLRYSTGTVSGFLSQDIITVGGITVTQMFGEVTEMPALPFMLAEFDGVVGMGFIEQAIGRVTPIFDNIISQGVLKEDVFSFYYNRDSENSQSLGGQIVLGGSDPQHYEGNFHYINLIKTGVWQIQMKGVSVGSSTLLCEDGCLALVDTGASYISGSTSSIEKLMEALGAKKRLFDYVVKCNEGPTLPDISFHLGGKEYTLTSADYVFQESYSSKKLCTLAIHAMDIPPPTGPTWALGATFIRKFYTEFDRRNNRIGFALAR
Km of cleavage of AGT by WT human renin (released Ang I quantified by immunoassay) [1] [µM],kcat of cleavage of AGT by WT human renin (released Ang I quantified by immunoassay) [1] [s⁻¹],kcat/Km of cleavage of AGT by WT human renin (released Ang I quantified by immunoassay) [1] [M⁻¹ s⁻¹],Kd [2] [nM],koff [2] [s⁻¹],kon [2] [M⁻¹ s⁻¹],inhibition of renin cleavage of an AGT fusion protein (intact AGT 1.1 μM) by increasing amounts of spent AGT (product inhibition; blocks renin with intact AGT) [3] [µM],Substance
0.76,0.2,250000,,,,,fully glycosylated WT human angiotensinogen (AGT) (natural protein)
0.56,0.35,640000,5.8,0.000209,36100,,human AGT N14Q variant (natural protein)
2.56,0.14,50000,91.5,0.000296,3210,,human AGT N331D (natural protein)
0.76,0.16,220000,27.9,0.000418,15000,,human AGT N334T (natural protein)
1.42,0.2,140000,44.6,0.000606,14000,,human AGT R83H (natural protein)
0.67,0.44,650000,1.2,8.61e-05,74600,,human AGT quadruple glycosylation mutant N14Q/N137Q/N271Q/N295Q (natural protein)
,,,,,,0.65,spent AGT (human AGT without the N-terminal 10-residue angiotensin I peptide) (domain or fragment)
